Reference: US20050175995A1 (UNIVERSITY OF UTAH RESEARCH FOUNDATION, published 2005)
Positions count from the first letter of the chain named. In names and notes the source's numbering stands.

Target: T1, wild-type (WT) Kir2.1 subunit (human, UniProt P63252 1-427)
T1 sequence: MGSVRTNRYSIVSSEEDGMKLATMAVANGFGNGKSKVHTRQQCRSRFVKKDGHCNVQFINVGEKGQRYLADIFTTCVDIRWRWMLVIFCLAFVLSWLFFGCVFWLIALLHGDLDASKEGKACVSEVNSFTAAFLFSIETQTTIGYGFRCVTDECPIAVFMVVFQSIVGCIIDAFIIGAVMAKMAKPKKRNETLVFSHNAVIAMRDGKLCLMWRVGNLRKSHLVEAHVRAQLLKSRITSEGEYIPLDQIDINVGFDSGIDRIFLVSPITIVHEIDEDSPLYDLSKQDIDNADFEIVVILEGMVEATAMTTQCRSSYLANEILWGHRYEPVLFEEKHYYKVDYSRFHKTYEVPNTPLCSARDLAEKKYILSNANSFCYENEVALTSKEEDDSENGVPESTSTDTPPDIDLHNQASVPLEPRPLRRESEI
Experiment: cell-based or functional assay

Reduction in current on co-expression of WT and D71V subunits, relative to WT current: ~0.938 fraction of WT current
B1: D71V Kir2.1 mutant subunit (other)
chain: T1 sequence with D71V
